Results taken from patent US20230106715A1 (BIOSION, published 2023).
Where two headings read alike, the source gives them in different places.

Key:
[1] = target: T1, human Siglec15-Fc protein (human); assay: competitive ELISA: coated human Siglec15-Fc, blocked ligand biotin-labeled human LRRC4C-Fc
T1 construct: In house made; also called recombinant human Siglec15 protein with human IgG1 Fc at the C-terminus
Description: Serially diluted anti-Siglec15 antibodies or the controls (starting at 66.67 nM with a 5-fold serial dilution) in PBST with 2.5% w/v non-fatty milk were added to the Siglec15-Fc bound plates, 100 μl per well, and incubated with the human Siglec15-Fc protein at 37° C. for 40 minutes. Plates were washed 4 times again using wash buffer, then added and incubated for 40 minutes at 37° C. with 100 μl/well 290 ng/ml biotin-labeled human LRRC4C-Fc protein (prepared in-house with SEQ ID NO: 23). Plates were washed again using wash buffer. Thereafter, the plates were added with 100 μl/well streptavidin conjugated HRP (1:5000 dilution in PBST buffer, Jackson Immunoresearch, Cat #016-030-084) and incubated for 40 minutes at 37° C. Plates were washed again using wash buffer. Finally, TMB was added and the reaction was stopped using 1M H₂SO₄, and the absorbance of each well was read on a microplate reader using dual wavelength mode with 450 nm for TMB and 630 nm as the reference wavelength, then the OD (450-630) values were plotted against antibody concentration. Data was analyzed using Graphpad Prism software and IC₅₀ values were reported.

[2] = target: T2, recombinant human Siglec15-his protein (human, UniProt Q6ZMC9 20-263); assay: capture ELISA, captured antibody, biotin-labeled human Siglec15-his in solution
T2 construct: In house made; Biotin-labeled in the capture ELISA
T2 sequence: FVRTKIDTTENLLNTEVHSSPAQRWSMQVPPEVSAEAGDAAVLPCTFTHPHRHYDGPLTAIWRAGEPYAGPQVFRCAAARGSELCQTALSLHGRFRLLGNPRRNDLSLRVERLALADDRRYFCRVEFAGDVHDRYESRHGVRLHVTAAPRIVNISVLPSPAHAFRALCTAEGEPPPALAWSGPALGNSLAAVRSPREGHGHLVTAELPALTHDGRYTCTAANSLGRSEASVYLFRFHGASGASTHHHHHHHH
Description: (§1) Briefly, 96-well plates were coated with 100 μl of 2 μg/ml AffiniPure Goat Anti-Human IgG F(ab′)₂ fragment specific (Jackson Immuno Research, Cat #109-005-097) in PBS for 2 hours at 37° C. Plates were washed once with wash buffer (PBS+0.05% v/v Tween-20, PBST) and then blocked with 200 μl blocking buffer (5% w/v non-fatty milk in PBST) overnight at 4° C. Plates were washed 4 times and respectively incubated with 100 μl serially diluted anti-Siglec15 antibodies of the disclosure, the benchmark and hIgG (human immunoglobulin (pH4) for intravenous injection, Hualan Biological Engineering Inc.), 5-fold dilution in 2.5% w/v non-fatty milk in PBST starting at 66.7 nM, for 40 minutes at 37° C., and then washed 4 times again. […] The reaction was stopped in 4 minutes at room temperature with 50 μl/well 1M H₂SO₄, and the absorbance of each well was read on a microplate reader using dual wavelength mode with 450 nm for TMB and 630 nm as the reference wavelength, then the OD (450-630) values were plotted against antibody concentration. Data was analyzed using Graphpad Prism software and EC₅₀ values were reported.

[3] = target: T2, recombinant human Siglec15-his protein; assay: as above; remark: listed apart in the source
Description: as §1

[4] = target: T3, human Siglec15-mouse Fc protein (human); assay: cell based blocking FACS: human Siglec15-mouse Fc in solution, blocked ligand human LRRC4C on LRRC4C-3F12-1B9 cells
T3 construct: In house made
T3 chain: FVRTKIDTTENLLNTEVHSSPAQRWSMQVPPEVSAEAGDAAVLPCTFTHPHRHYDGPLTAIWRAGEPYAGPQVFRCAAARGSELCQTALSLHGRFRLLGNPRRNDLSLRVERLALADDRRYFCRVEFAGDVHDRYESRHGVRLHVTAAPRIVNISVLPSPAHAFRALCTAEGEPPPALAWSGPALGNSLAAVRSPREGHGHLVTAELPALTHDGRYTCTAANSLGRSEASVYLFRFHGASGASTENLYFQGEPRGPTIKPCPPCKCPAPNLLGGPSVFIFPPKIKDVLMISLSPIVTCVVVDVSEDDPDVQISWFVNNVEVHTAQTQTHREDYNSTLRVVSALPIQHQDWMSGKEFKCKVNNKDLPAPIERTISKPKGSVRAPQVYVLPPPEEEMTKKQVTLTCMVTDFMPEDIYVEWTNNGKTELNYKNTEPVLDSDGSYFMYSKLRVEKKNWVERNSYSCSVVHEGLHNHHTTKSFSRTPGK
Description: The activities of the anti-Siglec15 antibodies to block binding of Siglec15 protein to cell surface LRRC4C were evaluated by Flow Cytometry (FACS), using in house made LRRC4C-3F12-1B9 cells. Briefly, HEK-293 cells (ATCC #CRL-1573) were transfected with pCMV-T-P plasmid constructs with the nucleotide sequence encoding human LRRC4C (amino acid residues Met1-Ile640 of uniprot #Q9HCJ2) inserted between EcoRI and XbaI, following the instruction of lipofectamine 3000 transfection reagent (Thermo Fisher). A stable cell named LRRC4C-3F12-1B9 was chosen for subsequent cell based ligand-blocking assay.
Briefly, the anti-Siglec15 antibodies of the disclosure or controls were diluted with human Siglec15-mouse Fc protein (prepared in-house with SEQ ID NO: 26, 8 μg/ml […] in FACS buffer), starting at 66.67 nM with a 5-fold serial dilution, and incubated at room temperature for 40 minutes. Then, LRRC4C-3F12-1B9 cells were harvested from cell culture flasks, washed twice and re-suspended in PBS containing 2% v/v Fetal Bovine Serum (FACS buffer). Then, 1×10⁵ cells per well in 96 well-plates were incubated in 100 μL of the antibody/Siglec15-mouse Fc mixtures for 40 minutes at 4° C. […] Cells were washed twice and re-suspended in FACS buffer. Fluorescence was measured using a Becton Dickinson FACS Canto II-HTS equipment. Data was analyzed using Graphpad Prism software and IC₅₀ values were reported.

T1 sequence (chain, as listed by the source limits assumed): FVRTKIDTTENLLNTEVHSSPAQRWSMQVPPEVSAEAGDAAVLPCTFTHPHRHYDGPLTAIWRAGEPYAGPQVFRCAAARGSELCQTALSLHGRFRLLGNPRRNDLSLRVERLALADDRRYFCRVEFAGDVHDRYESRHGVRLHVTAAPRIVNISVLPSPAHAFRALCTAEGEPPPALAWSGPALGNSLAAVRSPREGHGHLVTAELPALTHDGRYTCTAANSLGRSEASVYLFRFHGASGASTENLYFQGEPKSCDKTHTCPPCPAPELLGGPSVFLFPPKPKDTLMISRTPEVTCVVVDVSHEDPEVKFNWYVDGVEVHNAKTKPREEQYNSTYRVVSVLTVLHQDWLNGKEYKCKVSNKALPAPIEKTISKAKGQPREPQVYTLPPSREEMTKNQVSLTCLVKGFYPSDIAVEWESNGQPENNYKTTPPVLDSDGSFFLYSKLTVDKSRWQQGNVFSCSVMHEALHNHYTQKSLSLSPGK

B1: anti-Siglec15 benchmark (ch5G12) (antibody, human IgG1, kappa, V domains shown)
VH: QVQLQQPGAELVKPGASVKMSCKASGYTFTSYWITWVIQRPGQGLEWIGDIYCGSDTMHYNEKFKNKATLTVDTSSSTAYMQLSSLTSEDSAVYYCARWWDYGSSYDYFDYWGQGTTLTVSS
VL: DIKMTQSPSSMYASLGERVTITCKASQDINSYLSWFQQKPGKSPKTLIYRANRLVDGVPSRFSGSGSGQDYSLTISSLEYEDMGIYYCLQYDEFPYTFGGGTKLEIKR
notes: ch5G12 (US 20190202912A1); also called BM; Siglec15-ch5G9
With B1 the IC50 [1] was 0.792 nM, the EC50 [2] was 2.11 nM and the EC50 [3] was 2.35 nM. The IC50 [4] was 0.639 nM.
